The test system of series [1] is HeLa Kyoto. In words: solubility in G1/S (NP-40 vs SDS abundance) (log2 ratio); higher = more soluble. Particulars: cell cycle stage: G1/S.
Series [2] deals with HeLa Kyoto. In words: melting temperature (median over replicates), in situ; higher = more thermally stable.
The subject of series [3] is HeLa Kyoto. The series is described as follows: solubility change mitosis vs G1/S (difference of NP-40 vs SDS log2 ratios) (log2 ratio difference); higher = more soluble in mitosis.
For series [4], the system named is HeLa Kyoto. The series is described as follows: thermal stability score vs G1/S (z-score of summed log2 fold changes over temperatures); higher = more thermally stable than in G1/S.
[5] abbreviates: cell cycle stage: early G1 (4.5 h after nocodazole release).
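Wherever melting temperature (median over replicates), in situ is given: HeLa Kyoto cells synchronized by double thymidine or nocodazole block, proteins quantified by TMT10plex mass spectrometry, three independent biological replicates.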
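Wherever solubility change mitosis vs G1/S (difference of NP-40 vs SDS log2 ratios) is given: synchronized HeLa Kyoto cells (double thymidine block for G1/S, nocodazole release for mitosis), protein amounts in NP-40 versus SDS lysates quantified by mass spectrometry, three biological replicates.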
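Wherever solubility in G1/S (NP-40 vs SDS abundance) is given: HeLa Kyoto cells arrested at G1/S by double thymidine block, proteins quantified by TMT10plex mass spectrometry in mild NP-40 versus SDS extracts, three biological replicates.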
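Wherever thermal stability score vs G1/S (z-score of summed log2 fold changes over temperatures) is given: synchronized HeLa Kyoto cells, proteins quantified by TMT10plex mass spectrometry, three biological replicates, mitosis taken 0.5 h after nocodazole release, G1/S directly after double thymidine block.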

For “MDTPENVLQMLEAHMQSYKGNDPLGEWERYIQWVEENFPENKEYLITLLEHLMKEFLDKKKYHNDPRFISYCLKFAEYNSDLHQFFEFLYNHGIGTLSSPLYIAWAGHLEAQGELQHASAVLQRGIQNQAEPREFLQQQYRLFQTRLTETHLPAQARTSEPLHNVQVLNQMITSKSNPGNNMACISKNQGSELSGVISSACDKESNMERRVITISKSEYSVHSSLASKVDVEQVVMYCKEKLIRGESEFSFEELRAQKYNQRRKHEQWVNEDRHYMKRKEANAFEEQLLKQKMDELHKKLHQVVETSHEDLPASQERSEVNPARMGPSVGSQQELRAPCLPVTYQQTPVNMEKNPREAPPVVPPLANAISAALVSPATSQSIAPPVPLKAQTVTDSMFAVASKDAGCVNKSTHEFKPQSGAEIKEGCETHKVANTSSFHTTPNTSLGMVQATPSKVQPSPTVHTKEALGFIMNMFQAPTLPDISDDKDEWQSLDQNEDAFEAQFQKNVRSSGAWGVNKIISSLSSAFHVFEDGNKENYGLPQPKNKPTGARTFGERSVSRLPSKPKEEVPHAEEFLDDSTVWGIRCNKTLAPSPKSPGDFTSAAQLASTPFHKLPVESVHILEDKENVVAKQCTQATLDSCEENMVVPSRDGKFSPIQEKSPKQALSSHMYSASLLRLSQPAAGGVLTCEAELGVEACRLTDTDAAIAEDPPDAIAGLQAEWMQMSSLGTVDAPNFIVGNPWDDKLIFKLLSGLSKPVSSYPNTFEWQCKLPAIKPKTEFQLGSKLVYVHHLLGEGAFAQVYEATQGDLNDAKNKQKFVLKVQKPANPWEFYIGTQLMERLKPSMQHMFMKFYSAHLFQNGSVLVGELYSYGTLLNAINLYKNTPEKVMPQGLVISFAMRMLYMIEQVHDCEIIHGDIKPDNFILGNGFLEQDDEDDLSAGLALIDLGQSIDMKLFPKGTIFTAKCETSGFQCVEMLSNKPWNYQIDYFGVAATVYCMLFGTYMKVKNEGGECKPEGLFRRLPHLDMWNEFFHVMLNIPDCHHLPSLDLLRQKLKKVFQQHYTNKIRALRNRLIVLLLECKRSRK [BUB1]”, the “solubility in G1/S (log2)” value in series [1] is -0.019. In addition, the melting temperature in series [2] (cell cycle stage: G1/S) turned out to be 48.8 °C; in series [2] (cell cycle stage: mitosis), 49.9 °C. In addition, in series [3], the “solubility change mitosis (log2)” value is -0.112. Also, the figures for the thermal stability score in series [4] (setting [5]) and in series [4] (cell cycle stage: mitosis) were 0.554 and 1.15, respectively.
In the case of “MGCIKSKGKDSLSDDGVDLKTQPVRNTERTIYVRDPTSNKQQRPVPESQLLPGQRFQTKDPEEQGDIVVALYPYDGIHPDDLSFKKGEKMKVLEEHGEWWKAKSLLTKKEGFIPSNYVAKLNTLETEEWFFKDITRKDAERQLLAPGNSAGAFLIRESETLKGSFSLSVRDFDPVHGDVIKHYKIRSLDNGGYYISPRITFPCISDMIKHYQKQADGLCRRLEKACISPKPQKPWDKDAWEIPRESIKLVKRLGAGQFGEVWMGYYNNSTKVAVKTLKPGTMSVQAFLEEANLMKTLQHDKLVRLYAVVTREEPIYIITEYMAKGSLLDFLKSDEGGKVLLPKLIDFSAQIAEGMAYIERKNYIHRDLRAANVLVSESLMCKIADFGLARVIEDNEYTAREGAKFPIKWTAPEAINFGCFTIKSDVWSFGILLYEIVTYGKIPYPGRTNADVMTALSQGYRMPRVENCPDELYDIMKMCWKEKAEERPTFDYLQSVLDDFYTATEGQYQQQP [LYN]”, the “solubility in G1/S (log2)” value in series [1] is -0.416. Further, the melting temperature turned out to be 51.1 °C in series [2] (cell cycle stage: G1/S) and 50.7 °C in series [2] (cell cycle stage: mitosis). For the same sequence, in series [3], the “solubility change mitosis (log2)” value is -0.0796. The thermal stability score in series [4] (setting [5]) came to 1.11; in series [4] (cell cycle stage: mitosis), 0.805.
On to “MEDFARGAASPGPSRPGLVPVSIIGAEDEDFENELETNSEEQNSQFQSLEQVKRRPAHLMALLQHVALQFEPGPLLCCLHADMLGSLGPKEAKKAFLDFYHSFLEKTAVLRVPVPPNVAFELDRTRADLISEDVQRRFVQEVVQSQQVAVGRQLEDFRSKRLMGMTPWEQELAQLEAWVGRDRASYEARERHVAERLLMHLEEMQHTISTDEEKSAAVVNAIGLYMRHLGVRTKSGDKKSGRNFFRKKVMGNRRSDEPAKTKKGLSSILDAARWNRGEPQVPDFRHLKAEVDAEKPGATDRKGGVGMPSRDRNIGAPGQDTPGVSLHPLSLDSPDREPGADAPLELGDSSPQGPMSLESLAPPESTDEGAETESPEPGDEGEPGRSGLELEPEEPPGWRELVPPDTLHSLPKSQVKRQEVISELLVTEAAHVRMLRVLHDLFFQPMAECLFFPLEELQNIFPSLDELIEVHSLFLDRLMKRRQESGYLIEEIGDVLLARFDGAEGSWFQKISSRFCSRQSFALEQLKAKQRKDPRFCAFVQEAESRPRCRRLQLKDMIPTEMQRLTKYPLLLQSIGQNTEEPTEREKVELAAECCREILHHVNQAVRDMEDLLRLKDYQRRLDLSHLRQSSDPMLSEFKNLDITKKKLVHEGPLTWRVTKDKAVEVHVLLLDDLLLLLQRQDERLLLKSHSRTLTPTPDGKTMLRPVLRLTSAMTREVATDHKAFYVLFTWDQEAQIYELVAQTVSERKNWCALITETAGSLKVPAPASRPKPRPSPSSTREPLLSSSENGNGGRETSPADARTERILSDLLPFCRPGPEGQLAATALRKVLSLKQLLFPAEEDNGAGPPRDGDGVPGGGPLSPARTQEIQENLLSLEETMKQLEELEEEFCRLRPLLSQLGGNSVPQPGCT [ARHGEF1]”, for which, in series [1], the “solubility in G1/S (log2)” value came out at 0.0626. For the same sequence, the results for the melting temperature in series [2] (cell cycle stage: G1/S) and in series [2] (cell cycle stage: mitosis) were 49.2 °C and 49.1 °C, respectively. In addition, the “solubility change mitosis (log2)” value in series [3] was -0.134. The thermal stability score in series [4] (setting [5]) is 1.08; in series [4] (cell cycle stage: mitosis), 1.58.
With “MAPGVARGPTPYWRLRLGGAALLLLLIPVAAAQEPPGAACSQNTNKTCEECLKNVSCLWCNTNKACLDYPVTSVLPPASLCKLSSARWGVCWVNFEALIITMSVVGGTLLLGIAICCCCCCRRKRSRKPDRSEEKAMREREERRIRQEERRAEMKTRHDEIRKKYGLFKEENPYARFENN [PTTG1IP]”, in series [1], the “solubility in G1/S (log2)” value was -0.362. In series [2] (cell cycle stage: G1/S), this sequence returned a melting temperature of 56.3 °C. Moreover, the “solubility change mitosis (log2)” value in series [3] is -0.143. The values for the thermal stability score in series [4] (setting [5]) and in series [4] (cell cycle stage: mitosis) were -5.97 and -6.48, respectively.
In the case of “MAAEKQVPGGGGGGGSGGGGGSGGGGSGGGRGAGGEENKENERPSAGSKANKEFGDSLSLEILQIIKESQQQHGLRHGDFQRYRGYCSRRQRRLRKTLNFKMGNRHKFTGKKVTEELLTDNRYLLLVLMDAERAWSYAMQLKQEANTEPRKRFHLLSRLRKAVKHAEELERLCESNRVDAKTKLEAQAYTAYLSGMLRFEHQEWKAAIEAFNKCKTIYEKLASAFTEEQAVLYNQRVEEISPNIRYCAYNIGDQSAINELMQMRLRSGGTEGLLAEKLEALITQTRAKQAATMSEVEWRGRTVPVKIDKVRIFLLGLADNEAAIVQAESEETKERLFESMLSECRDAIQVVREELKPDQKQRDYILEGEPGKVSNLQYLHSYLTYIKLSTAIKRNENMAKGLQRALLQQQPEDDSKRSPRPQDLIRLYDIILQNLVELLQLPGLEEDKAFQKEIGLKTLVFKAYRCFFIAQSYVLVKKWSEALVLYDRVLKYANEVNSDAGAFKNSLKDLPDVQELITQVRSEKCSLQAAAILDANDAHQTETSSSQVKDNKPLVERFETFCLDPSLVTKQANLVHFPPGFQPIPCKPLFFDLALNHVAFPPLEDKLEQKTKSGLTGYIKGIFGFRS [SRP68]”, the “solubility in G1/S (log2)” value in series [1] is -0.033. Also, the melting temperature in series [2] (cell cycle stage: G1/S) was determined as 50.7 °C; in series [2] (cell cycle stage: mitosis), 49.4 °C. Also, the “solubility change mitosis (log2)” value in series [3] is 0.209. Further, the values for the thermal stability score in series [4] (setting [5]) and in series [4] (cell cycle stage: mitosis) were -0.295 and -0.156, respectively.
“MDVLAEEFGNLTPEQLAAPIPTVEEKWRLLPAFLKVKGLVKQHIDSFNYFINVEIKKIMKANEKVTSDADPMWYLKYLNIYVGLPDVEESFNVTRPVSPHECRLRDMTYSAPITVDIEYTRGSQRIIRNALPIGRMPIMLRSSNCVLTGKTPAEFAKLNECPLDPGGYFIVKGVEKVILIQEQLSKNRIIVEADRKGAVGASVTSSTHEKKSRTNMAVKQGRFYLRHNTLSEDIPIVIIFKAMGVESDQEIVQMIGTEEHVMAAFGPSLEECQKAQIFTQMQALKYIGNKVRRQRMWGGGPKKTKIEEARELLASTILTHVPVKEFNFRAKCIYTAVMVRRVILAQGDNKVDDRDYYGNKRLELAGQLLSLLFEDLFKKFNSEMKKIADQVIPKQRAAQFDVVKHMRQDQITNGMVNAISTGNWSLKRFKMDRQGVTQVLSRLSYISALGMMTRISSQFEKTRKVSGPRSLQPSQWGMLCPSDTPEGEACGLVKNLALMTHITTDMEDGPIVKLASNLGVEDVNLLCGEELSYPNVFLVFLNGNILGVIRDHKKLVNTFRLMRRAGYINEFVSISTNLTDRCVYISSDGGRLCRPYIIVKKQKPAVTNKHMEELAQGYRNFEDFLHESLVEYLDVNEENDCNIALYEHTINKDTTHLEIEPFTLLGVCAGLIPYPHHNQSPRNTYQCAMGKQAMGTIGYNQRNRIDTLMYLLAYPQKPMVKTKTIELIEFEKLPAGQNATVAVMSYSGYDIEDALVLNKASLDRGFGRCLVYKNAKCTLKRYTNQTFDKVMGPMLDAATRKPIWRHEILDADGICSPGEKVENKQVLVNKSMPTVTQIPLEGSNVPQQPQYKDVPITYKGATDSYIEKVMISSNAEDAFLIKMLLRQTRRPEIGDKFSSRHGQKGVCGLIVPQEDMPFCDSGICPDIIMNPHGFPSRMTVGKLIELLAGKAGVLDGRFHYGTAFGGSKVKDVCEDLVRHGYNYLGKDYVTSGITGEPLEAYIYFGPVYYQKLKHMVLDKMHARARGPRAVLTRQPTEGRSRDGGLRLGEMERDCLIGYGASMLLLERLMISSDAFEVDVCGQCGLLGYSGWCHYCKSSCHVSSLRIPYACKLLFQELQSMNIIPRLKLSKYNE [POLR3B]”: the “solubility in G1/S (log2)” value in series [1] is -0.184. Also, the melting temperature was 48.9 °C in series [2] (cell cycle stage: G1/S) and 49.6 °C in series [2] (cell cycle stage: mitosis). For the same sequence, the “solubility change mitosis (log2)” value in series [3] is -0.161. In addition, the values for the thermal stability score in series [4] (setting [5]) and in series [4] (cell cycle stage: mitosis) were 0.664 and 1.01, respectively.

Source of the values: the supplement of paper PMC5998384.
